# Source: patent US20040002457A1, “Inhibition of virus anchorage by RGG domain of a cell surface-expressed protein, polynucleotide coding for said RGG domain, therapeutic uses thereof by inhibition of microorganism or protein ligand binding to the cell-surface-expressed protein” (priority 2002, published 2004)
# No end group written: not given here.
# T1: cell-surface-expressed hamster nucleolin (on CHO K1, CHO 677 and CHO 618 cells) (Chinese hamster), A0A8C2
# T1 chain: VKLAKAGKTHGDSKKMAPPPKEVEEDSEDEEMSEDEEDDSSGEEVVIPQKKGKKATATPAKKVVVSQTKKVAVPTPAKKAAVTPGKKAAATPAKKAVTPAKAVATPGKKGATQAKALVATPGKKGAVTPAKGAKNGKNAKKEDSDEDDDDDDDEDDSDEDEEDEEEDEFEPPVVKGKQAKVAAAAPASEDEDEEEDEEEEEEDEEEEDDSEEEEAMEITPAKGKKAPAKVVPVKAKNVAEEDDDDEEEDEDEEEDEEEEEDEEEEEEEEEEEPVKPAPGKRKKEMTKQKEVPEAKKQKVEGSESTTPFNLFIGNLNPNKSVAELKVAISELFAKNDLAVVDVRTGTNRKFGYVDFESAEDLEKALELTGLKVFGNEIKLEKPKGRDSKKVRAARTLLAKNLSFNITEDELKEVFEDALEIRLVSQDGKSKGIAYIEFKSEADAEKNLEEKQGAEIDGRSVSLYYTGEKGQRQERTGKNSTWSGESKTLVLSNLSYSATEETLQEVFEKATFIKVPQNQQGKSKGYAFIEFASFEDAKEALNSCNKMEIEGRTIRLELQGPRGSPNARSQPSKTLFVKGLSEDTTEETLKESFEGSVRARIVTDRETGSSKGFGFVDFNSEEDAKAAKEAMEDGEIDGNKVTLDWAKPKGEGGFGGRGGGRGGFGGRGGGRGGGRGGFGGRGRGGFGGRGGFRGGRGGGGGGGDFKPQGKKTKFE
# Columns and labels:
# [1] = target: T1, cell-surface-expressed hamster …; test: biotinylated HB-19A on wild type CHO K1 cells, streptavidin-HRP
# [2] = target: cell-surface-expressed human nucleolin (on HeLa P4 and MT4 cells) (human), P19338; test: 125I-labeled HB-19A on HeLa P4 cell monolayers, wash at 300 mM NaCl
# cell-surface-expressed human nucleolin (on HeLa P4 and MT4 cells) (human), P19338, sequence (P19338 2-710): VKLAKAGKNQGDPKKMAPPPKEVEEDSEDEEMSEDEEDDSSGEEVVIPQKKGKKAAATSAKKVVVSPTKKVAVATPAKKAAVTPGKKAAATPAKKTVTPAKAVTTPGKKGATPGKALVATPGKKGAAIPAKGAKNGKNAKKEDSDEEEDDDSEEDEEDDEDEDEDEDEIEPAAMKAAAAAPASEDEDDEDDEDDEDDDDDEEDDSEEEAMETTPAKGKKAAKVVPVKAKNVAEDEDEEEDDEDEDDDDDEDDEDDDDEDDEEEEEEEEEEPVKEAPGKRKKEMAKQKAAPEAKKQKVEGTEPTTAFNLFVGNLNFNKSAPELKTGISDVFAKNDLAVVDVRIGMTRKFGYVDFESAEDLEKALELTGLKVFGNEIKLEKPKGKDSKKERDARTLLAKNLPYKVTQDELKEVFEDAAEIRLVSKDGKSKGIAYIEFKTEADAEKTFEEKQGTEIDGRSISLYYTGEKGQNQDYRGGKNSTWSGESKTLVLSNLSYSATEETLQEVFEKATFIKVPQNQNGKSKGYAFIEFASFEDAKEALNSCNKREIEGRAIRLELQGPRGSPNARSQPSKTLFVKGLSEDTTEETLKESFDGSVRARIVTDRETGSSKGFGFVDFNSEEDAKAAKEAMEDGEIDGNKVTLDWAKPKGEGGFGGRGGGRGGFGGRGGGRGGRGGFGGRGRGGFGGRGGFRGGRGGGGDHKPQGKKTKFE
# [3] = target: GST-R1234G, GST fusion of the C-terminal part of human nucleolin (RBDs I-IV and RGG domain) (human) (UniProt P19338); test: dose series 0-10 µM biotinylated HB-19A, avidin-agarose pull-down, anti-GST immunoblot
# GST-R1234G, GST fusion of the C-terminal part of human nucleolin (RBDs I-IV and RGG domain) (human), sequence (P19338 308-707, stated change not applied): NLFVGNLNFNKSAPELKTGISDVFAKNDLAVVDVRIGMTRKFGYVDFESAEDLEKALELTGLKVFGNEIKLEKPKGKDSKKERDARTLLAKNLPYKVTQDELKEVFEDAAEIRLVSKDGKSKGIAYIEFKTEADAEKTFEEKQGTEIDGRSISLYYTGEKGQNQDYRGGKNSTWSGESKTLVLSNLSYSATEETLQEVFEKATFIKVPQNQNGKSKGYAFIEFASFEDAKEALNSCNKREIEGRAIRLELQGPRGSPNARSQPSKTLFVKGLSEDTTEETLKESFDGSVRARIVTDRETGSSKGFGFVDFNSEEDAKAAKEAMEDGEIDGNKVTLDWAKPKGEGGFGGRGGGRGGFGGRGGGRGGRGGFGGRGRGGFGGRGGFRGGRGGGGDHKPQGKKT
# [4] = target: GST-R234G, GST fusion of human nucleolin RBDs II, III, IV and the RGG domain (human) (UniProt P19338); test: as above
# GST-R234G, GST fusion of human nucleolin RBDs II, III, IV and the RGG domain (human), sequence (P19338 389-710, stated change not applied): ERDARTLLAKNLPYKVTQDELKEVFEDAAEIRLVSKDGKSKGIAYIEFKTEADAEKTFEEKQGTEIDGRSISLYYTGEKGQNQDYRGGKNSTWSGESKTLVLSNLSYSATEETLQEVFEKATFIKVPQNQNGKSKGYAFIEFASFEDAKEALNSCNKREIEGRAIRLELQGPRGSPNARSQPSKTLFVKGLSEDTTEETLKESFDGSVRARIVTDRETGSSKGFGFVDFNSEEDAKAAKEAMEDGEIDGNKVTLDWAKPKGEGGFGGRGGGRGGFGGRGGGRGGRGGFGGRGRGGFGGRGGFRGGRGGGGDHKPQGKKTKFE
# [5] = target: GST-G, GST fusion of the RGG domain of human nucleolin alone (human), P19338; test: as above
# GST-G, GST fusion of the RGG domain of human nucleolin alone (human), P19338, sequence (P19338 648-710): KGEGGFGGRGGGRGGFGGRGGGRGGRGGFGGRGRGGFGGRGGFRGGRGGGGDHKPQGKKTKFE
binder,measurement,setting,value
"HB-19A, pseudopeptide 5[K-Psi(CH2N)-PR]-TASP with a modified TASP template (also: reduced amide bond Psi(CH2N) between Lys and Pro in each KPR, five KPR copies on the KKKKA template: alpha-NH2 of the four template Lys and epsilon-NH2 of the N-terminal Lys, template Lys linked through their epsilon-NH2 groups) peptide: Lys-Pro-Arg KKKKA",HB-19A concentration at saturation of binding,[1],1 µM
same,HB-19A concentration at saturation of specific binding,[2],1 µM
same,HB-19A concentration at maximum binding,[3],5 µM
same,HB-19A concentration at maximum binding,[4],5 µM
same,HB-19A concentration at maximum binding,[5],5 µM
